Here are results for 28 sequences from the Immune Epitope Database (IEDB).

Targets include HLA-A*68:01; HLA-A*31:01; HLA-A*03:01; HLA-A*33:01; HLA-A*11:01.
Common to all, as to test: IEDB peptide-MHC binding, purified MHC/competitive/radioactivity; filed as Kd, often an IC50 or EC50 that approximates it; ≥ and ≤ were set here for values at or beyond the usual limits of such assays
The mark [1] stands for this setting: source organism: Vaccinia virus WR.
Setting [2] is: source organism: Mammarenavirus lassaense.
Where [3] appears, read: source organism: Dengue virus 2 Jamaica/1409/1983.
Setting [4] is: source organism: Dengue virus 1 Brazil/97-11/1997.
Where [5] appears, read: source organism: Dengue virus 3 Martinique/1243/1999.
Where [6] appears, read: source organism: Lassa virus Josiah.
The mark [7] stands for this setting: source organism: SARS coronavirus Tor2.

Where only a bound is given, the exact number is not on record here.

ATKRYPGVMY: the Kd was at least 70200 nM in the experiment with HLA-A*68:01 (setting [1]); 18100 nM in the experiment with HLA-A*31:01 (setting [1]); 32.8 nM with HLA-A*03:01 (setting [1]); at least 70000 nM in the experiment with HLA-A*33:01 (setting [1]); 164 nM with HLA-A*11:01 (setting [1]).
For VCSFYADPK, the Kd is 5680 nM in the experiment with HLA-A*68:01 (setting [2]); at least 27200 nM with HLA-A*31:01 (setting [2]); 3840 nM with HLA-A*03:01 (setting [2]); at least 77700 nM in the experiment with HLA-A*33:01 (setting [2]); 3130 nM with HLA-A*11:01 (setting [2]).
Regarding AIKILTGFR, the equilibrium dissociation constant (Kd) with HLA-A*31:01 (source organism: Dengue virus 4 Philippines/H241/1956) was 54.7 nM.
As for VSLVKKNKK, the dissociation constant (Kd) with HLA-A*68:01 (setting [1]) is at least 27400 nM; in the experiment with HLA-A*31:01 (setting [1]), 856 nM; in the experiment with HLA-A*03:01 (setting [1]), at least 58500 nM; with HLA-A*33:01 (setting [1]), at least 77700 nM; with HLA-A*11:01 (setting [1]), 2280 nM.
For ASILSLETVK, in that order: 1770 nM, 12800 nM, 4700 nM, at least 70000 nM and 25.4 nM.
RSCTLPPLR: the Kd in the experiment with HLA-A*31:01 (setting [3]) worked out at 4.6 nM.
As for ILSKIPYLR, the dissociation constant Kd with HLA-A*68:01 (setting [1]) amounted to 13.3 nM; with HLA-A*31:01 (setting [1]), 2.54 nM; with HLA-A*03:01 (setting [1]), 605 nM; in the experiment with HLA-A*33:01 (setting [1]), 97.4 nM; with HLA-A*11:01 (setting [1]) it was 30.7 nM.
For LLDSIKMIY, in that order: 722 nM, 3350 nM, 4730 nM, at least 48600 nM and 17800 nM.
As to PSILPSLIK, the dissociation constant Kd is at least 40900 nM in the experiment with HLA-A*68:01 (setting [1]); at least 36900 nM in the experiment with HLA-A*31:01 (setting [1]); 1850 nM with HLA-A*03:01 (setting [1]); at least 77700 nM with HLA-A*33:01 (setting [1]); 383 nM with HLA-A*11:01 (setting [1]).
Take TSEKYSKGYK: the Kd was 924 nM with HLA-A*68:01 (setting [1]); at least 70000 nM in the experiment with HLA-A*31:01 (setting [1]); at least 25000 nM with HLA-A*03:01 (setting [1]); at least 70000 nM with HLA-A*33:01 (setting [1]); 1050 nM in the experiment with HLA-A*11:01 (setting [1]).
Turning to IISRTRLYDY, the Kd with HLA-A*68:01 (setting [1]) was 4360 nM; with HLA-A*31:01 (setting [1]), 13200 nM; with HLA-A*03:01 (setting [1]), 225 nM; with HLA-A*33:01 (setting [1]), at least 70000 nM; in the experiment with HLA-A*11:01 (setting [1]), 1270 nM.
For DTPSPPEVER, the dissociation constant Kd with HLA-A*68:01 (setting [4]) was 610 nM.
For the sequence RVIDPRRCMK, in the experiment with HLA-A*31:01 (setting [3]), the Kd was 4.4 nM.
With MTSRMLLNR, the Kd with HLA-A*68:01 (setting [4]) is 54.6 nM; with HLA-A*31:01 (setting [4]) it was at least 23600 nM; in the experiment with HLA-A*33:01 (setting [4]), 2.47 nM; with HLA-A*11:01 (setting [4]), 40.4 nM.
Consider KVVKKLSVIR, for which the equilibrium dissociation constant (Kd) with HLA-A*68:01 (setting [1]) was 482 nM; with HLA-A*31:01 (setting [1]) it was 56.3 nM; in the experiment with HLA-A*03:01 (setting [1]) it was 5120 nM; with HLA-A*33:01 (setting [1]), 3620 nM; with HLA-A*11:01 (setting [1]) it was 916 nM.
On to AAIDGEYRLK, for which the Kd with HLA-A*11:01 (setting [5]) was 349 nM.
Consider TTRMENLLWK, for which the equilibrium dissociation constant (Kd) came out at 102 nM with HLA-A*03:01 (setting [5]) and 103 nM with HLA-A*11:01 (setting [5]).
As for DAVRAFLLR, the equilibrium dissociation constant (Kd) is 0.831 nM with HLA-A*68:01 (setting [1]); 484 nM with HLA-A*31:01 (setting [1]); at least 34400 nM with HLA-A*03:01 (setting [1]); 23.4 nM with HLA-A*33:01 (setting [1]); 13700 nM with HLA-A*11:01 (setting [1]).
Take SFYLISIFLH: the dissociation constant Kd with HLA-A*68:01 (setting [6]) was found to be 3240 nM; with HLA-A*31:01 (setting [6]), 160 nM; with HLA-A*03:01 (setting [6]), 1020 nM; with HLA-A*33:01 (setting [6]), 281 nM; with HLA-A*11:01 (setting [6]), 17100 nM.
With MINYYNEMSR, the Kd in the experiment with HLA-A*68:01 (setting [1]) was determined as 13.4 nM; in the experiment with HLA-A*31:01 (setting [1]), 95.9 nM; with HLA-A*03:01 (setting [1]) it was 143 nM; with HLA-A*33:01 (setting [1]), 406 nM; in the experiment with HLA-A*11:01 (setting [1]), 53.3 nM.
With KFAEESYTYY, the Kd with HLA-A*68:01 (setting [1]) was 1130 nM; with HLA-A*31:01 (setting [1]), at least 21700 nM; in the experiment with HLA-A*03:01 (setting [1]), 4860 nM; in the experiment with HLA-A*33:01 (setting [1]), at least 42100 nM; in the experiment with HLA-A*11:01 (setting [1]), 10200 nM.
In the case of SSAVVDNKLK, the Kd in the experiment with HLA-A*68:01 (setting [1]) was 1.19 nM; in the experiment with HLA-A*31:01 (setting [1]) it was 1520 nM; in the experiment with HLA-A*03:01 (setting [1]), 289 nM; in the experiment with HLA-A*33:01 (setting [1]) it was 17500 nM; in the experiment with HLA-A*11:01 (setting [1]), 37.2 nM.
For MSLYMAISPK, the Kd in the experiment with HLA-A*68:01 (setting [7]) is 10.7 nM; with HLA-A*31:01 (setting [7]) it was 69.4 nM; with HLA-A*03:01 (setting [7]), 0.256 nM; in the experiment with HLA-A*33:01 (setting [7]), 1870 nM; in the experiment with HLA-A*11:01 (setting [7]) it was 0.199 nM.
As for LVTFKTAHAK, the figures for the Kd in the experiment with HLA-A*03:01 (setting [4]) and in the experiment with HLA-A*11:01 (setting [4]) were 26.2 nM and 478 nM, respectively.
Turning to SQILPDPLK, the equilibrium dissociation constant (Kd) in the experiment with HLA-A*68:01 (setting [7]) was at least 50400 nM; in the experiment with HLA-A*31:01 (setting [7]) it was at least 25300 nM; with HLA-A*03:01 (setting [7]), 17400 nM; with HLA-A*33:01 (setting [7]), at least 55900 nM; in the experiment with HLA-A*11:01 (setting [7]), 4550 nM.
For FIVPEFAKQY, the Kd in the experiment with HLA-A*68:01 (setting [1]) was 11300 nM; with HLA-A*31:01 (setting [1]), at least 70000 nM; with HLA-A*03:01 (setting [1]) it was at least 70100 nM; with HLA-A*33:01 (setting [1]), at least 70000 nM; in the experiment with HLA-A*11:01 (setting [1]), at least 69800 nM.
As to LIVSLCPTKK, the Kd in the experiment with HLA-A*68:01 (setting [1]) is 350 nM; in the experiment with HLA-A*31:01 (setting [1]) it was 11600 nM; with HLA-A*03:01 (setting [1]), 226 nM; in the experiment with HLA-A*33:01 (setting [1]), at least 70000 nM; in the experiment with HLA-A*11:01 (setting [1]) it was 56.9 nM.
Turning to TTLWEGSPGK, in the experiment with HLA-A*11:01 (setting [4]), the Kd was 85 nM.

Usually Kd stands for the free concentration of one partner at which half of the binding sites on the other are occupied at equilibrium, for simple one-to-one binding.
